The supplement of paper PMC11246515
± gives the standard deviation of the averaged measurements.

Experiment: total protein half-life in vivo (active degradation + dilution); higher = more stable protein
[1] = E. coli NCM3722 delta-clpP delta-lon delta-hslV, growth: N-lim chemostat, doubling time 6 h
[2] = E. coli NCM3722 delta-clpP, growth: N-lim chemostat, doubling time 6 h
[3] = E. coli NCM3722 delta-hslV, growth: N-lim chemostat, doubling time 6 h
[4] = E. coli NCM3722 delta-lon, growth: N-lim chemostat, doubling time 6 h
[5] = E. coli NCM3722 delta-smpB, growth: N-lim chemostat, doubling time 6 h
[6] = wild type E. coli NCM3722, growth: C-lim chemostat, doubling time 3 h
[7] = wild type E. coli NCM3722, growth: C-lim chemostat, doubling time 6 h
[8] = wild type E. coli NCM3722, growth: C-lim chemostat, doubling time 12 h
[9] = wild type E. coli NCM3722, growth: N-lim chemostat, doubling time 6 h
[10] = wild type E. coli NCM3722, growth: N-lim chemostat, doubling time 12 h
[11] = wild type E. coli NCM3722, growth: P-lim chemostat, doubling time 6 h
[12] = wild type E. coli NCM3722, growth: P-lim chemostat, doubling time 12 h

Row | Sequence | total protein half-life in vivo [1] [h] | total protein half-life in vivo [2] [h] | total protein half-life in vivo [3] [h] | total protein half-life in vivo [4] [h] | total protein half-life in vivo [5] [h] | total protein half-life in vivo [6] [h] | total protein half-life in vivo [7] [h] | total protein half-life in vivo [8] [h] | total protein half-life in vivo [9] [h] | total protein half-life in vivo [10] [h] | total protein half-life in vivo [11] [h] | total protein half-life in vivo [12] [h]
1 | MRHCGWLLGLLSLFSLATHASDWQEIKNEAKGQTVWFNAWGGDTAINRYLDWVSGEMKTHYAINLKIVRLADAADAVKRIQTEAAAGRKTGGSVDLLWVNGENFRTLKEANLLQTGWAETLPNWRYVDTQLPVREDFSVPTQGAESPWGGAQLTFIARRDVTPQPPQTPQALLEFAKANPGTVTYPRPPDFTGTAFLEQLLIMLTPDPAALKEAPDDATFARVTAPLWQYLDVLHPYLWREGKDFPPSPARMDALLKAGTLRLSLTFNPAHAQQKIASGDLPASSYSFGFREGMIGNVHFVTIPANANASAAAKVVANFLLSPDAQLRKADPAVWGDPSVLDPQKLPDGQRESLQSRMPQDLPPVLAEPHAGWVNALEQEWLHRYGTH | 5.63 ± 0.51 | 6.09 ± 0.099 | 6.22 ± 0.27 | 6.17 ± 0.65 | 5.628 ± 0.055 | 3.45 ± 0.33 | 6.17 ± 0.22 | 13.7 ± 0.41 | 6.027 ± 0.021 | 13.4 ± 0.98 | 6.54 ± 0.45 | 12.3 ± 1.5
2 | MRHLRNIFNLGIKELRSLLGDKAMLTLIVFSFTVSVYSSATVTPGSLNLAPIAIADMDQSQLSNRIVNSFYRPWFLPPEMITADEMDAGLDAGRYTFAINIPPNFQRDVLAGRQPDIQVNVDATRMSQAFTGNGYIQNIINGEVNSFVARYRDNSEPLVSLETRMRFNPNLDPAWFGGVMAIINNITMLAIVLTGSALIREREHGTVEHLLVMPITPFEIMMAKIWSMGLVVLVVSGLSLVLMVKGVLGVPIEGSIPLFMLGVALSLFATTSIGIFMGTIARSMPQLGLLVILVLLPLQMLSGGSTPRESMPQMVQDIMLTMPTTHFVSLAQAILYRGAGFEIVWPQFLTLMAIGGAFFTIALLRFRKTIGTMA [P0AGH1] | – | – | 7.18 ± 0.3 | – | 6.13 ± 0.76 | 3.9 | 7.01 | 12.2 | 5.76 ± 0.3 | 10.5 | 7.25 ± 0.75 | 11.7 ± 0.4
3 | MRHPLVMGNWKLNGSRHMVHELVSNLRKELAGVAGCAVAIAPPEMYIDMAKREAEGSHIMLGAQNVDLNLSGAFTGETSAAMLKDIGAQYIIIGHSERRTYHKESDELIAKKFAVLKEQGLTPVLCIGETEAENEAGKTEEVCARQIDAVLKTQGAAAFEGAVIAYEPVWAIGTGKSATPAQAQAVHKFIRDHIAKVDANIAEQVIIQYGGSVNASNAAELFAQPDIDGALVGGASLKADAFAVIVKAAEAAKQA [P0A858] | 5.91 ± 0.91 | 5.22 ± 0.98 | 4.718 ± 0.03 | 5.61 ± 0.81 | 4.59 ± 0.26 | 3.057 ± 0.024 | 5.92 ± 0.066 | 10.6 ± 0.24 | 4.75 ± 0.24 | 8.33 ± 0.46 | 5.79 ± 0.17 | 13.1 ± 0.81
4 | MRICSDQPCIVLLTEKDVWIRVNGKEPISLKANHMALLNCENNIIDVSSLNNTLVAHISHDIIKDYLRFLNKDLSQIPVWQRSATPILTLPCLTPDVFRVAAQHSMMPAETESEKERTRALLFTVLSRFLDSKKFVSLMMYMLRNCVSDSVYQIIESDIHKDWNLSMVASCLCLSPSLLKKKLKSENTSYSQIITTCRMRYAVNELMMDGKNISQVSQSCGYNSTSYFISVFKDFYGMTPLHYVSQHRERTVA | – | – | – | – | 1.24 | – | – | – | – | – | – | –
5 | MRIGHGFDVHAFGGEGPIIIGGVRIPYEKGLLAHSDGDVALHALTDALLGAAALGDIGKLFPDTDPAFKGADSRELLREAWRRIQAKGYTLGNVDVTIIAQAPKMLPHIPQMRVFIAEDLGCHMDDVNVKATTTEKLGFTGRGEGIACEAVALLIKATK | 5.75 ± 0.23 | 4.63 ± 0.57 | 4.88 ± 0.23 | 5 ± 0.85 | 4.88 ± 0.38 | 2.872 ± 0.01 | 6.85 ± 1.3 | 10.7 | 4.9 ± 0.24 | 8.67 ± 0.53 | 5.806 ± 0.032 | 12.9 ± 0.45
6 | MRIGIDLGGTKTEVIALGDAGEQLYRHRLPTPRDDYRQTIETIATLVDMAEQATGQRGTVGMGIPGSISPYTGVVKNANSTWLNGQPFDKDLSARLQREVRLANDANCLAVSEAVDGAAAGAQTVFAVIIGTGCGAGVAFNGRAHIGGNGTAGEWGHNPLPWMDEDELRYREEVPCYCGKQGCIETFISGTGFAMDYRRLSGHALKGSEIIRLVEESDPVAELALRRYELRLAKSLAHVVNILDPDVIVLGGGMSNVDRLYQTVGQLIKQFVFGGECETPVRKAKHGDSSGVRGAAWLWPQE | 5.21 ± 0.15 | 5.38 ± 0.09 | 6.33 ± 1.9 | 5.67 ± 0.31 | 5.3 ± 0.66 | 2.8 ± 0.4 | 5.8 ± 0.29 | 11.8 ± 2.8 | 5.18 ± 0.18 | 9.94 ± 4 | 6.21 ± 0.56 | 11.7 ± 0.5
